Reference: US20210347867A1

What was measured:
[1] = target: amyloid peptide Aβ1-42 (UniProt P05067); test: ELISA, plate coated with Aβ1-42 (target by legend paragraph 23), antibody titrated, signal as % Max
[2] = target: amyloid peptide AβpE3-42 (UniProt P05067); test: ELISA, plate coated with AβpE3-42, antibody titrated, signal as % Max
Sequence of amyloid peptide AβpE3-42 (P05067 674-713 limits assumed): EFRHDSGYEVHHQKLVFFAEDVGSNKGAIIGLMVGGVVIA

Sequence of amyloid peptide Aβ1-42 (P05067 672-713 limits assumed): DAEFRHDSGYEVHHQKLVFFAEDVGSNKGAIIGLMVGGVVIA

## Solineuzumab (antibody)
[1]
  EC50: 0.22 µg/mL
[2]
  EC50: 0.15 µg/mL
